Results from the DeepSol protein solubility set.

Assay: soluble on expression in E. coli; label from the status in PepcDB or PDB records

Sequence	soluble on expression in E. coli
MSLVDTAKVLILDDQAVSRSILSKIVRNLGRGIKTCEFSSPTEALLWAQDNTADLLLVDYEMPGMNGLCFINEITRLPQYQTVPTIMITIKQDVEIRYAALDAGVTDFLTKPVDMHECMARCKNLITLRQQRLTLEDEGHHHHHH	soluble
MSLVEVYLNSSSMIPIDRYYEYDIYDLVIEAYKNFEGEYDVNSIDLIVVANAYSQKLNNASLIAPKIAEKIGKPNVPSIKVDNADASGGAALLTAYSLIKSNMVNSVLIVGVEKQSDYPSKYLYDAISTNLDDYMFYNGISSHSVAALLMRQYMKRYGVDRNYFANWAIKMHKNATENPFAYLRFQVDLNTVINSQIISDPVRLFDVGARADGAAILLLSNNKTESAVKINKILSAQARYDFSPSLPSVRMLRDKLELKFSERTGIDIHDSYSIMAALMLEEAGIFESGKSLHNLDSVNVNLGGGLKARGHVGGASAIYQLAEAHMQLIGSFKGKKASVDNYIVISSDDLGMVSYGINLSREGHHHHHH	not soluble
MSIDKSPREHWASHQERGSFMLMKLTAWGMRVLGRRLLTPVQYGIVLYFFVFGRRARHSIWEYQQRLADWSARPELRPSQRRVFGQFMAFAEALLDKLDVWNGRLGIEQIEIIDPALLRQSLRGARGQMLVGAHLGNLEVCRALAELGEKITMNVLVHTKHAERFNRLLGEAGATNLRLIQVSELDPAIMLQLSQRLDEGEWLAIAGDRVALHGGRNVRVDFLGQPATFPQGPWLLAGLLKCPVNLFFCLKGPKGYRVILEPFADAIEWRRSDRAQVIAHWATRYAERLGHYCLEAPQQWFNFYPFWKSDDESSS	not soluble
MGSDKIHHHHHHMDGINTLRYSDLFLAMYFDGGKSCLHRNHSHVLVYVYSGEMVIDEKGQITRLHKGECAFIRKDFSVQMTKQAWNGEQFKAIFLMFTMKFLRDFYSKLDRNTLPKDAKRDQVSLYKLPSNRPDIVSLFESMTPYFNSKIQPTDELLQLKMVEGVYVLLNTDKNLYASIFDFTDPWKIDILEFMERNYMNDISMEEIANYTGRSLSTFKRDFKKCSALSPREWLIRRRLEAAHGLIRKGGRKVSEICFEVGFKNLSHFSKIYKIAYGVPPTEDI	not soluble
METLLTQILDRLDQLHSSVGALTSDVNEMKNQLNKIEARAGSIEERVNSIEARVDSIESRVNNIEANMATKDELAELRSKVDDIEAKMATKDELAELRSTVNGLQSNVNEIQAKMATKEELAELRSKVNELQFKVNELQSNVNEIQAKMATKDDLVPIRQAVMEIDQIVKRIEVNQERHEHILAILSKRSIEHEASIASLRQAQ	not soluble
MSLDFSEPLLGFEPRDTEIGRRLEVWKAMQALTGPKNLLSLSPDPEMNSSSLLSTLSPAAWGRAEESVVRTKRMVGPVEVKEEENFFCGRPEKSHAKLVFVSTSGGSLWNLQAIHSMCRIEQEQIRSHISFGALCQRSAANECCPSWSLGNYLAVLSNRSSCQDTTQADTDRTLALLRFCATFYHRGVLVPACVGSSQDKPPFCAQVPAKCTGSNVVYEFLHYLLDRDFLSPQTADYQVPSLKFALLFLPIIKTSSLLDIYLDGLGDPIKVSDNYTSISGMDLGLKPRLLKYYLAEDTEGHHHHHH	not soluble
MDQKKDPSNNLTERRVSKVQRPNKKKVRNQVESLSRNLERNKEGQLLQTVSKGHLEADSGHSLGREKENGELGIRSIFYDKDWNPRGTAPSHYRNIPYNPATFKRRTEVQARLGNLENIKIPK	not soluble
MSLTVRQLASLTRGAVRTLATDGAVAVLPIGAVEQHGDHLPLGTDFLLVEAVCDRAMQQLEDDRTTWVRVPTMTFGHSPHHLFAAAVSLQAGTLTDVLADVLDSLAQTGFRRIVIVNGHGGNDELVRLAVKAHSLHAEGTAAACSYWTLTAQTTAEAAATERPDRTPGHAGWFETSLMLAVHPELVADDRPFTPSDPPPLFNRSPAPGLTVERHGEWPRVGGTTDDAREASAETGRLLLGRRVAGLVAALQSLDRATATPPAASVPSTDRERGPQAEGHHHHHH	not soluble
MGSDKIHHHHHHMSSLQISQGTFRLSDTKTLHLDSLTLNAGDSWAFVGANGSGKSALARALAGELPLLTGERQCRFTRITRLSFEQLQKLVSDEWQRNNTDMLSPGEDDTGRTTAEIIQDDVHHPARCAILAQQFGISALLDRRFKYLSTGETRKALLCQALMSEPELLILDEPFDGLDVTARQQLAQRLTALNQAGMTLALVLNRFDEIPDFVQFAGVLADCTLAETGTTAELLQRALVAQLAHSERLTDVQLPEPDEPSARHALPDGEPRIVLNDGVVSYNDRPILHHLSWRVNPGEHWQIVGPNGAGKSTLLSLITGDHPQGYSNDLTLFGRRRGSGETIWDIKKHIGYVSSSLHLDYRVSTTVRNVILSGYFDSIGIYQAVSDRQRKLAQQWLDILGIDKRTADAPFHSLSWGQQRLALIVRALVKHPTVLILDEPLQGLDPLNRQLVRRFVDVLIRQGETQLLFVSHHAEDAPACITHRLEFVPEGERYKYVSGRCNN	not soluble
MGSDKIHHHHHHMADETISLDYYAPRFRVEIDGETIPQDGIVSVEVDETLDAPAMVSLAFNETLDPRSQTFAWLDNPKLVPGAEVKVFLGYTGRAVPAPKPLFEGRLHTLTPAFQNSGVPSLMVQGYDHSHGLQKVKSHFSRTNARASDAASEIARLNGLDASGVEATATVHPSIRQGEDEVDLEFLRRLARDLGFEVFVRGKALMFRTPADEETELLTFQWGRNLVSFTPRLSTSAQVSEVRVRGWNPATKERIEGKATVADLKGLAGGVSGAEQAGSGGEPVVRSIEDRPVFSREEADALARAELNRLNDGFITGTGETIGMPELRPGITVAIQGIGTRFSGRYYVKGARHSLGDSGYRTTFEVRRNALGSL	not soluble
MGSEILVGIGEFRVAKGAVLKTIGLGSCVGIALYDPKLRLGGLAHVMLPQSGNGTKRSAKYADHAVEMMTEAMERLGSDRKRIVAKMAGGAQIFKHMTMDMLRIGDRNAEAIRTILRDYGIRIVSEDLGGDEGRTVYFFTNDGRMLVKYSRGGELWI	soluble
MRYDVLARAGFARRGNLHLPHSIVETPVFMPVGTQGTMKGIVPEQLVSMDCRILLCNTYHLGHRPGHERVKAAGGLHKMMNWNRSILTDSGGFQMVSLSKLMTVDENGVNFESPHTGEMMALPPEKSIEIQQALGADIMMQLDHVIHVLTTGDIVKEAMHRSIRWLDRCKVAHTRDDQAMFPILQGGLNLELRKECAKEMAKRAKVGIAIGGLSGGEEKDHFWRVVAACCAALPPHLPRYVMGVGFPVDLVICSFLGADMFDCVYPTRTARFGTAMVRRGGLMQLNQKRYKEDFLPIDKKCECNTCKNYTRAYIHSIVGKETVGCHLVSVHNIKHQLDLMRDVRQAIQSNSVEQFLKQFLYDYYGPIQSENPSKQDSEKMREVPQWVRDAVDHMGYKLDF	not soluble
GGRLLGALCVFKDITDAVELAEEVTNLKQVRTMLEAIIQSSDEAISVVDENGIGLLINKAYTKMTGLSEKEVIGKPANTDISEGESMHLKVLETRRPVRGVRMKVGPNEKEVIVNVAPVIVDG	not soluble
IVGGYNCKDGEVPWQALLINEENEGFCGGTILSEFYILTAAHCLYQAKRFKVRVGDRNTEQEEGGEAVHEVEVVIKHNRFTKETYDFDIAVLRLKTPITFRMNVAPASLPTAPPATGTKCLISGWGNTASSGADYPDELQCLDAPVLSQAKCEASYPGKITSNMFCVGFLEGGKDSCQGDSGGPVVCNGQLQGVVSWGDGCAQKNKPGVYTKVYNYVKWIKNTIAANS	soluble
MSLTPLPYECQKCVLQFFEANRRFKLVERCDSLKAADKAAPLHIYKLYMNPRVIRINRHRYTLGLLRHLPKDHVYYSPYINNVNLDGGAAYDMDQYGLKDPRCNEVLSPGDLKVESKEKINNMEDMTMEMLQFAMRDFIRPQGRMQVQQREDPESSSEDDEDEAEDLPAEGSDDEDDDPQEAQIRRILGDAYLPRARYSSSESEASESEDEPDIDPAVTDQLEAYTNPYSWREENEPAPYRFGIRFQRMNLDFRRDRETFHGIIEYLDYNKKMYDAMKYITEKLFGKRAHPIVIKTLELGDAGGVYRLPENFKVKVSNMRFGTEFGLLWDGLNSIFHESTLPFKSLHMPLEHDHPVIHATQRLVIGTEKMFGENFAWIPFLLKLPQKNVYMLHSPLFHHDYVQLIDNWIETPKSIGTCFTFGVKQYHATQSTLNLLGDHPMVVSKRMEGVDCTEFPHCFNIPLTYESELNVYGKKRTENLDPLEFMPHVSWCLVFEVMPIGSALPLED	not soluble
MTTNEEFIRTQIFGTVFEITNRYNDLNPVGMGAFGLVCSATDTLTSQPVAIKKIMKPFSTAVLAKRTYRELKLLKHLRHENLICLQDIFLSPLEDIYFVTELQGTDLHRLLQTRPLEKQFVQYFLYQILRGLKYVHSAGVIHRDLKPSNILINENCDLKICDFGLARIQDPQMTGYVSTRYYRAPEIMLTWQKYDVEVDIWSAGCIFAEMIEGKPLFPGKDHVHQFSIITDLLGSPPKDVINTICSENTLKFVTSLPHRDPIPFSERFKTVEPDAVDLLEKMLVFDPKKRITAADALAHPYSAPYHDPTDEPVADAKFDWHFNDADLPVDTWRVMMYSEILDFHKIGGSDGQIDISATFDDQVAAATAAAAQAQAQAQAQVQLNMAAHSHNGAGTTGNDHSDIAGGNKVSDHVAANDTITDYGNQAIQYANEFQQ	soluble
MGHHHHHHSHMGITTNLISEVSKFYYALKYHAKFMSLGELGCYASHYSLWEKCIELNEAICILEDDITLKEDFKEGLDFLEKHIQELGYIRLMHLLYDASVKSEPLSHKNHEIQERVGIIKAYSEGVGTQGYVITPKIAKVFLKCSRKWVVPVDTIMDATFIHGVKNLVLQPFVIADDEQISTIARKEEPYSPKIALMRELHFKYLKYWQFV	not soluble
MGSDKIHHHHHHMARGYIAKKLLVEGKDDLRVIPELIEKNGIVWGNNKKEAIVTIEDYGGYTNINSDLVSTELQASGLTHLGLMVDADDKPQTRWQSIREACLDSILDIPEEIPTTGLIHTTNTGIKFGVWIMPDNLMQGMLETFLAYMIPDESEPLWMYAQEVVAEAKIKGASFIDARIDKAKIHTWLAWQEEPGR	not soluble
MSLGAYLSQPNTVKCSGDGVGAPRLPLPYGFSAMQGWRVSMEDAHNCIPELDSETAMFSVYDGHGGEEVALYCAKYLPDIIKDQKAYKEGKLQKALEDAFLAIDAKLTTEEVIKELAQIAGRPGMEGKEEPGSDSGTTAVVALIRGKQLIVANAGDSRCVVSEAGKALDMSYDHKPEDEVELARIKNAGGKVTMDGRVNGGLNLSRAIGDHFYKRNKNLPPEEQMISALPDIKVLTLTDDHEFMVIACDGIWNVMSSQEVVDFIQSKISQRDENGELRLLSSIVEELLDQCLAPDTSGDGTGCDNMTCIIICFKPRNTAELQPESGKRKLEEVLSTEGAEEEGHHHHHH	soluble
MAHHHHHHMASPASTNPAHDHFETFVQAQLCQDVLSSFQGLCRALGVESGGGLSQYHKIKAQLNYWSAKSLWAKLDKRASQPVYQQGQACTNTKCLVVGAGPCGLRAAVELALLGARVVLVEKRIKFSRHNVLHLWPFTIHDLRALGAKKFYGRFCTGTLDHISIRQLQLLLLKVALLLGVEIHWGVKFTGLQPPPRKGSGWRAQLQPNPPAQLASYEFDVLISAAGGKFVPEGFTIREMRGKLAIGITANFVNGRTVEETQVPEISGVARIYNQKFFQSLLKATGIDLENIVYYKDETHYFVMTAKKQCLLRLGVLRQDLSETDQLLGKANVVPEALQRFARAAADFATHGKLGKLEFAQDARGRPDVAAFDFTSMMRAESSARVQEKHGARLLLGLVGDCLVEPFWPLGTGVARGFLAAFDAAWMVKRWAEGAGPLEVLAERESLYQLLSQTSPENMHRNVAQYGLDPATRYPNLNLRAVTPNQVQDLYDMMDKE	soluble
